In the nanobody polyreactivity screen of Harvey et al. (2022):

Assay: yeast display, Sf9 membrane polyspecificity reagent, FACS + sequencing; frameworks hold sequencing errors
In short: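 Synthetic nanobody libraries on Saccharomyces cerevisiae BJ5465 were galactose-induced for 36–48 hours, stained 1 hour at 4 °C with 10% biotinylated, detergent-solubilized Sf9 membrane reagent and enriched on streptavidin microbeads. FACS then separated cells into low and high (top ~1%) gates by anti-HA (expression) and streptavidin (reagent binding) fluorescence. Genes were colony-PCR amplified, MiSeq 2 × 250 sequenced and CDR-length filtered. A clone's polyreactivity label is that of its gate of origin.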

Sequence | polyreactivity (PSR sort gate)
QVQLVESGGGLVQAGGSLRLSCAASGNIFLDYAMGWYRQAPGKEREWVAAITSGGSTNYADSVKGRFTISRDNAKNTVYLQMNSLKPEDTAVYYCNKDVWDGYDWPEFDYWGQGTQVTVSS | low polyreactivity
QVQLVESGGGLVQAGGSLRLSCAASGNIFLRYAMGWYRQAPGKERELVAAISYSGGGSTYYADSVKGRFTISRDNAKNTVYLQMNSLKPEDTAVYYCAKVLTSRTQFFDYDYWGQGTQVTVSS | low polyreactivity
QVQLVESGGGLVQAGGSLRLSCAASGNIFLYYAMGWSRQAPGKERELVADIDSSGASTYYADSVKGRFTISRDNAKNTVYLQMNSLKPEDTAVYYCAAEFHWWYAGYDYGYWGQGTQVTVSS | low polyreactivity
QVQLVESGGGLVQAGGSLRLSCAASGNIFLYYAMGWYRQAPGKERELVARIDSGGSTYYADSVKGRFTISRDNAKNTVYLQMNSLKPEDTAVYYCATDEGTVGGQQLRPLMDYWGQGTQVTVSS | low polyreactivity
QVQLVESGGGLVQAGGSLRLSCAASGNIFNTNARGWYRQAPGKDTELVAAISWNTGSTYADSVKGRFTISRDNAKKTVDLPMNSLKPEDTAVYYCAADRSHAYYRKNRVDYWGQGTQVTVSS | low polyreactivity
QVQLVESGGGLVQAGGSLRLSCAASGNIFPDYAMGWYRQAPGKERELVAAISTSGSSTYYADSVKGRFTISRDNAKNNDYLQMNSLKPEDTAVYYCNAYRNADYVYWGQGTQVTVSS | low polyreactivity
QVQLVESGGGLVQAGGSLRLSCAASGNIFPRYAMGLYRQAPGKERELVAAITWRTSSTYYADSVKGRFTISRDNAKNTVYLQMNSLKPEDTAVYFCAKTSSRIAGEYWGQGTQVTVSS | low polyreactivity
QVQLVESGGGLVQAGGSLRLSCAASGNIFPYNAMGWYRQAPGKERELVASISSGGSTNYADSVKGRFTISRDNAKNTVYLQMNSLKPEDTAVYYCAKDQSVLSRGGTYDYWGQGTQVTVSS | low polyreactivity
QVQLVESGGGLVQAGGSLRLSCAASGNIFQAYAMGWSRQAPGKERELVATIRTYADYVKGRFTISRDNAKNTVYLQMNSLKPEDTAVYYCAAQNAMYYDSYSGYDSWGQGTQVTVSS | low polyreactivity
QVQLVESGGGLVQAGGSLRLSCAASGNIFRINAMGWYRQAPGKERELVAAISRSVGSTYADSVKGRFTISRDNAKNTVYLQMNSLKPEDTAVYYCNARGRTQQRWVDYWGQGTQVTVSS | high polyreactivity
QVQLVESGGGLVQAGGSLRLSCAASGNIFRPYTMGWYRQAPGKERELVARISSGGSTNYADSVKGRFTISRDNGKYTDYFQLNSLKPEVTAVYYWSKRYGTVLSRYGYLGQGTQVTVSS | high polyreactivity
QVQLVESGGGLVQAGGSLRLSCAASGNIFSDNTMGWYRQAPGKERELVAVITSGTSTSYADSVKGRFTISRDNAKNTEYFQMNSLKPEDTAVSYAARTGQYKTYGEYDYWGQGTQVTVSS | low polyreactivity
QVQLVESGGGLVQAGGSLRLSCAASGNIFSFYTMGWYRQAPGKERELVAAISWSGTSTYYADSVKGRFTISRDNAKNTVYLQMNSLKPEDTAVYYCAAVRRISRYDYWGQGTQVTVSS | high polyreactivity
QVQLVESGGGLVQAGGSLRLSCAASGNIFSINAMGWYRQAPGKERELVAAISWSGGSTYYADSVKGRFTISRDNAKNTVYLQMNSLKPEDTAVYYCAADVYYLGYYEYYYWGQGTQVTVSS | high polyreactivity
QVQLVESGGGLVQAGGSLRLSCAASGNIFSTYAMGWDRQAPGKERELVAAISSRGTSTYYADSVKGRFTISRDNAKNTVYLQMNSLKPEDTAVYYCNAVIALQLDYWGQGTQVTVSS | high polyreactivity
QVQLVESGGGLVQAGGSLRLSCAASGNIFSVYAMVWYRPAPGKERELVAAISSSGGRTYYADSVKGRFTISRDNAKNTVYLQMNSLKPEDTAVYYCAARSYTGQFGYWGQGTQVTVSS | high polyreactivity

Sequence | polyreactivity (PSR sort gate)
QVQLVESGGGLVQAGGSLRLSCAASGNIFSYNAMGWYRQAPGKERELVAGISTAGTTSYADSVKGRFTISRDNAKNTVYLQLNSLKPEDTAVYYCAKRRYYWTNLHYFLGYDYWGQGTQVTVSS | low polyreactivity
QVQLVESGGGLVQAGGSLRLSCAASGNIFTTYAMGWYRQAPGKERELVAAISRTGGRTSYADSVKGRFTISRDNAKNTVYLQMNSLKPEDTAVYYCAAVPTVRPSAPRARILSDYWGQGTQVTVSS | high polyreactivity
QVQLVESGGGLVQAGGSLRLSCAASGNIFVAYPMGWYRKATGKERELVAVISNGGRTYYADSVKGRFTISRDNAKNTVYLQMNSLKPEDTAVYYCATVAHASYGWHNYWGQGTQVTVSS | high polyreactivity
QVQLVESGGGLVQAGGSLRLSCAASGNIFVPNAMGWYRQAPGKERGLVAAIRRGGSTNYADSVKGRFTISRDNAKNNVYLQMNSLKPEDTGVYYCARSRVSFTDLEGYYWGQGTQVTVSS | low polyreactivity
QVQLVESGGGLVQAGGSLRLSCAASGNIFVRYAMGWYRQAPGKERELVAAISSSGGRTYYADSVKGRFTISRDNAKNTVYLQMNSLKPEDTAVYYCADAQGNAHRDYWGQGTQVTVSS | high polyreactivity
QVQLVESGGGLVQAGGSLRLSCAASGNIFVYYAMGWYRQAPGKERELVASITTSGGSTYYADSVKGRFTISRDNAKNTVYLQMNSLKPEDTAVYYCAALYYYWMDYWGQGTQVTVSS | low polyreactivity
QVQLVESGGGLVQAGGSLRLSCAASGNIFWAYAMGWYRQAPGKERELVAAISGRSGSTYYADSVKGRFTISRDNAKNTVYLQMNSLKPEDTAVYYCNARPRYTSGGYDYWGQGTQVTVSS | low polyreactivity
QVQLVESGGGLVQAGGSLRLSCAASGNIFYGYAMGWYRQAPGKERELVARINWSGSRTYYADSVKGRFTISRDNAKNSVYLQMNSLKPEDTAVYYCNTSTSRVPGNGDYWGQGTQVTVSS | high polyreactivity
QVQLVESGGGLVQAGGSLRLSCAASGNIFYKYDMGWYRQAPGKERELVATISSDANTKYADSLKGRFTISRDNAKNTVYLQMNSLKPEDTPVYYCNVKDPVVRGALRDPTEYDSWGQGTQVTVSS | low polyreactivity
QVQLVESGGGLVQAGGSLRLSCAASGNIFYLNTMGWYRQAPGKERELVASITRSTGSTYYADSVKGRFTISRDNAKNTVYLQMNSLKPEDTAVYYCAADWSLNKTPRLKGYTFRDDYWGQGTQVTVTS | low polyreactivity
QVQLVESGGGLVQAGGSLRLSCAASGNIFYNVMGWYRQAPGKVRELVAVISSGDSTYYADSVKGRFTISRDNAKNTVYLQMNSLIPEDTAVYYCNAQWITSAYLLYSYDYWWGYDYWGQGTQVTVSS | high polyreactivity
QVQLVESGGGLVQAGGSLRLSCAASGNIFYRNAMGWYRQAPGKERELVAGITTSGDSTYYADSVKGRFTISRDNAKNTVYLQMNSLKPEDTAVYYCAASSHRYKYSSSYYYWGQGTQVTVSS | high polyreactivity
QVQLVESGGGLVQAGGSLRLSCAASGNIFYRYAMGWYRQAPGKERELVAAISGNSGNTYYADSVKGRFTISRDNAKNTVYLQMNSLKPEDTAVYYCAVRRKSFRQTSYNYWGQGTQVTVSS | high polyreactivity
QVQLVESGGGLVQAGGSLRLSCAASGNIFYTYAMGWYRQAPGKERELVAAITWSGGSTYYADSVKGRFTISRDNAKNTVYLQMNSLKPEDTAVYYCAAESLGYYYSGGYYSIYDHWGQGTQVTVSS | high polyreactivity
QVQLVESGGGLVQAGGSLRLSCAASGNIFYYNAMGGNRQAPGKERELVAAITTGGSTNYADSVKGRFTISRDNAKNTVYLQMNSLTPEDTAVYDCAADFIRYINRLLYDYWGQGTQVTVSS | low polyreactivity
